Experimental data taken from paper PMC7954794 (2021).

B1: S. cerevisiae Abp1 (full length; SH3 domain 535-592 mutated) / Hua2 (parent complex)
chain 1: MALEPIDYTTHSREIDAEYLKIVRGSDPDTTWLIISPNAKKEYEPESTGSSFHDFLQLFDETKVQYGLARVSPPGSDVEKIIIIGWCPDSAPLKTRASFAANFAAVANNLFKGYHVQVTARDEDDLDENELLMKISNAAGARYSIQTSSKQQGKASTPPVKKSFTPSKSPAPVSKKEPVKTPSPAPAAKISSRVNDNNDDDDWNEPELKERDFDQAPLKPNQSSYKPIGKIDLQKVIAEEKAKEDPRLVQKPTAAGSKIDPSSDIANLKNESKLKRDSEFNSFLGTTKPPSMTESSLKNDDDKVIKGFRNEKSPAQLWAERKAKQNSGNAETKAEAPKPEVPEDEPEGEPDVKDLKSKFEGLAASEKEEEEMENKFAPPPKKSEPTIISPKPFSKPQEPVKAEEAEQPKTDYKKIGNPLPGMHIEADNEEEPEENDDDWDDDEDEAAQPPLPSRNVASGAPVQKEEPEQEEIAPSLPSRNSIPAPKQEEAPEQAPEEEIEEEAEEAAPQLPSRSSAAPPPPPRRATPEKKPKENPWATAEYDYDAAEDNELTFVENDKIINIEFVDDDWWLGELEKDGSKGLFPSNYVSLGN
chain 2: MQQTKFGKMYLDHDSVVEYSEDEIVEADRITLGYKKRLSMIENQMRHLLEDFSLDVQQIEPILADLQKYYDAFLQLLQKRNKSLQCKRSTHQPVPSPMNSQTSTNAKVNLSGKLMKFQLNSVQKFDEENILRILQNKIEFEHYFQIDKGKKQKVLLLAVYQCLNGPTRLHKVLNIEGIIHNNSIRTILGKQVSSSKWTVFLYDVKLVLLAHRQDVPNLETSKMIVRYGDLFPCALYFKDHTAY

Variants of: B1
Assay: DHFR protein-fragment complementation in yeast (Abp1-DHFR F[1,2] x partner-DHFR F[3]), deep mutational scanning, second methotrexate selection vs reference; S. cerevisiae, DHFR-PCA selection in liquid with methotrexate at 30 C, two 72 h selections (the score uses the second); reference = the pre-selection culture

| Variant | screen value |
| --- | --- |
| chain 1 D567V | -2.81 DMS score: mean over two replicates of log2(f_test/f_ref + 0.5)/ln 2, minus the synonymous-codon median (not a log2 … |
| chain 1 N586D | -1.73 DMS score: mean over two replicates of log2(f_test/f_ref + 0.5)/ln 2, minus the synonymous-codon median (not a log2 … |
| chain 1 Y541E | -1.48 DMS score: mean over two replicates of log2(f_test/f_ref + 0.5)/ln 2, minus the synonymous-codon median (not a log2 … |
| chain 1 Y541N | -1.91 DMS score: mean over two replicates of log2(f_test/f_ref + 0.5)/ln 2, minus the synonymous-codon median (not a log2 … |
| chain 1 E563T | -1.2 DMS score: mean over two replicates of log2(f_test/f_ref + 0.5)/ln 2, minus the synonymous-codon median (not a log2 … |
| chain 1 K580R | 0.457 DMS score: mean over two replicates of log2(f_test/f_ref + 0.5)/ln 2, minus the synonymous-codon median (not a log2 … |
| chain 1 E563A | -1.08 DMS score: mean over two replicates of log2(f_test/f_ref + 0.5)/ln 2, minus the synonymous-codon median (not a log2 … |
| chain 1 V565Y | -0.425 DMS score: mean over two replicates of log2(f_test/f_ref + 0.5)/ln 2, minus the synonymous-codon median (not a log2 … |
| chain 1 S579Q | 0.0179 DMS score: mean over two replicates of log2(f_test/f_ref + 0.5)/ln 2, minus the synonymous-codon median (not a log2 … |
| chain 1 D567E | -1.62 DMS score: mean over two replicates of log2(f_test/f_ref + 0.5)/ln 2, minus the synonymous-codon median (not a log2 … |
| chain 1 D568G | -2.49 DMS score: mean over two replicates of log2(f_test/f_ref + 0.5)/ln 2, minus the synonymous-codon median (not a log2 … |
| chain 1 S579R | 0.286 DMS score: mean over two replicates of log2(f_test/f_ref + 0.5)/ln 2, minus the synonymous-codon median (not a log2 … |
| chain 1 A539C | -0.17 DMS score: mean over two replicates of log2(f_test/f_ref + 0.5)/ln 2, minus the synonymous-codon median (not a log2 … |
| chain 1 V565L | -1.23 DMS score: mean over two replicates of log2(f_test/f_ref + 0.5)/ln 2, minus the synonymous-codon median (not a log2 … |
| chain 1 E555Q | 0.0961 DMS score: mean over two replicates of log2(f_test/f_ref + 0.5)/ln 2, minus the synonymous-codon median (not a log2 … |
| chain 1 L551M | -0.642 DMS score: mean over two replicates of log2(f_test/f_ref + 0.5)/ln 2, minus the synonymous-codon median (not a log2 … |
| chain 1 N592F | 0.212 DMS score: mean over two replicates of log2(f_test/f_ref + 0.5)/ln 2, minus the synonymous-codon median (not a log2 … |
| chain 1 P535W | 0.493 DMS score: mean over two replicates of log2(f_test/f_ref + 0.5)/ln 2, minus the synonymous-codon median (not a log2 … |
| chain 1 D548R | -1.06 DMS score: mean over two replicates of log2(f_test/f_ref + 0.5)/ln 2, minus the synonymous-codon median (not a log2 … |
| chain 1 L574M | -0.568 DMS score: mean over two replicates of log2(f_test/f_ref + 0.5)/ln 2, minus the synonymous-codon median (not a log2 … |
| chain 1 N549A | 2.13 DMS score: mean over two replicates of log2(f_test/f_ref + 0.5)/ln 2, minus the synonymous-codon median (not a log2 … |
| chain 1 N592Q | 0.855 DMS score: mean over two replicates of log2(f_test/f_ref + 0.5)/ln 2, minus the synonymous-codon median (not a log2 … |
| chain 1 G578Q | -0.153 DMS score: mean over two replicates of log2(f_test/f_ref + 0.5)/ln 2, minus the synonymous-codon median (not a log2 … |
| chain 1 V554L | -0.408 DMS score: mean over two replicates of log2(f_test/f_ref + 0.5)/ln 2, minus the synonymous-codon median (not a log2 … |
| chain 1 N549G | 1.33 DMS score: mean over two replicates of log2(f_test/f_ref + 0.5)/ln 2, minus the synonymous-codon median (not a log2 … |

| Variant | screen value |
| --- | --- |
| chain 1 K576Q | -0.814 DMS score: mean over two replicates of log2(f_test/f_ref + 0.5)/ln 2, minus the synonymous-codon median (not a log2 … |
| chain 1 E575Q | 0.336 DMS score: mean over two replicates of log2(f_test/f_ref + 0.5)/ln 2, minus the synonymous-codon median (not a log2 … |
| chain 1 L582W | 0.141 DMS score: mean over two replicates of log2(f_test/f_ref + 0.5)/ln 2, minus the synonymous-codon median (not a log2 … |
| chain 1 G591W | -0.547 DMS score: mean over two replicates of log2(f_test/f_ref + 0.5)/ln 2, minus the synonymous-codon median (not a log2 … |
| chain 1 W569F | 0.62 DMS score: mean over two replicates of log2(f_test/f_ref + 0.5)/ln 2, minus the synonymous-codon median (not a log2 … |
| chain 1 W536Y | 0.0348 DMS score: mean over two replicates of log2(f_test/f_ref + 0.5)/ln 2, minus the synonymous-codon median (not a log2 … |
| chain 1 K580L | -0.907 DMS score: mean over two replicates of log2(f_test/f_ref + 0.5)/ln 2, minus the synonymous-codon median (not a log2 … |
| chain 1 A546L | -0.283 DMS score: mean over two replicates of log2(f_test/f_ref + 0.5)/ln 2, minus the synonymous-codon median (not a log2 … |
| chain 1 E575W | -0.949 DMS score: mean over two replicates of log2(f_test/f_ref + 0.5)/ln 2, minus the synonymous-codon median (not a log2 … |
| chain 1 D566Q | -2.94 DMS score: mean over two replicates of log2(f_test/f_ref + 0.5)/ln 2, minus the synonymous-codon median (not a log2 … |
| chain 1 E555N | -0.276 DMS score: mean over two replicates of log2(f_test/f_ref + 0.5)/ln 2, minus the synonymous-codon median (not a log2 … |
| chain 1 G591T | 0.63 DMS score: mean over two replicates of log2(f_test/f_ref + 0.5)/ln 2, minus the synonymous-codon median (not a log2 … |
| chain 1 Y541H | -1.01 DMS score: mean over two replicates of log2(f_test/f_ref + 0.5)/ln 2, minus the synonymous-codon median (not a log2 … |
| chain 1 D567N | -1.8 DMS score: mean over two replicates of log2(f_test/f_ref + 0.5)/ln 2, minus the synonymous-codon median (not a log2 … |
| chain 1 L571R | -1.06 DMS score: mean over two replicates of log2(f_test/f_ref + 0.5)/ln 2, minus the synonymous-codon median (not a log2 … |
| chain 1 K558S | -0.847 DMS score: mean over two replicates of log2(f_test/f_ref + 0.5)/ln 2, minus the synonymous-codon median (not a log2 … |
| chain 1 L571C | -0.177 DMS score: mean over two replicates of log2(f_test/f_ref + 0.5)/ln 2, minus the synonymous-codon median (not a log2 … |
| chain 1 T552A | -0.173 DMS score: mean over two replicates of log2(f_test/f_ref + 0.5)/ln 2, minus the synonymous-codon median (not a log2 … |
| chain 1 D566A | -2.64 DMS score: mean over two replicates of log2(f_test/f_ref + 0.5)/ln 2, minus the synonymous-codon median (not a log2 … |
| chain 1 T538M | 0.283 DMS score: mean over two replicates of log2(f_test/f_ref + 0.5)/ln 2, minus the synonymous-codon median (not a log2 … |
| chain 1 N556Y | 0.313 DMS score: mean over two replicates of log2(f_test/f_ref + 0.5)/ln 2, minus the synonymous-codon median (not a log2 … |
| chain 1 K576H | -0.301 DMS score: mean over two replicates of log2(f_test/f_ref + 0.5)/ln 2, minus the synonymous-codon median (not a log2 … |
| chain 1 E540V | -2.31 DMS score: mean over two replicates of log2(f_test/f_ref + 0.5)/ln 2, minus the synonymous-codon median (not a log2 … |
| chain 1 F564H | -2.23 DMS score: mean over two replicates of log2(f_test/f_ref + 0.5)/ln 2, minus the synonymous-codon median (not a log2 … |
| chain 1 V554I | -0.0296 DMS score: mean over two replicates of log2(f_test/f_ref + 0.5)/ln 2, minus the synonymous-codon median (not a log2 … |

| Variant | screen value |
| --- | --- |
| chain 1 N549R | -1.02 DMS score: mean over two replicates of log2(f_test/f_ref + 0.5)/ln 2, minus the synonymous-codon median (not a log2 … |
| chain 1 E575V | -0.317 DMS score: mean over two replicates of log2(f_test/f_ref + 0.5)/ln 2, minus the synonymous-codon median (not a log2 … |
| chain 1 A546W | -0.986 DMS score: mean over two replicates of log2(f_test/f_ref + 0.5)/ln 2, minus the synonymous-codon median (not a log2 … |
| chain 1 V554K | 1.28 DMS score: mean over two replicates of log2(f_test/f_ref + 0.5)/ln 2, minus the synonymous-codon median (not a log2 … |
| chain 1 D542A | 0.327 DMS score: mean over two replicates of log2(f_test/f_ref + 0.5)/ln 2, minus the synonymous-codon median (not a log2 … |
| chain 1 P535H | -0.124 DMS score: mean over two replicates of log2(f_test/f_ref + 0.5)/ln 2, minus the synonymous-codon median (not a log2 … |
| chain 1 N556A | -0.361 DMS score: mean over two replicates of log2(f_test/f_ref + 0.5)/ln 2, minus the synonymous-codon median (not a log2 … |
| chain 1 E540C | -1.63 DMS score: mean over two replicates of log2(f_test/f_ref + 0.5)/ln 2, minus the synonymous-codon median (not a log2 … |
| chain 1 D542E | 0.0251 DMS score: mean over two replicates of log2(f_test/f_ref + 0.5)/ln 2, minus the synonymous-codon median (not a log2 … |
| chain 1 D544A | 0.497 DMS score: mean over two replicates of log2(f_test/f_ref + 0.5)/ln 2, minus the synonymous-codon median (not a log2 … |
| chain 1 N549Y | -1.27 DMS score: mean over two replicates of log2(f_test/f_ref + 0.5)/ln 2, minus the synonymous-codon median (not a log2 … |
| chain 1 D542P | 0.905 DMS score: mean over two replicates of log2(f_test/f_ref + 0.5)/ln 2, minus the synonymous-codon median (not a log2 … |
| chain 1 K580H | -0.129 DMS score: mean over two replicates of log2(f_test/f_ref + 0.5)/ln 2, minus the synonymous-codon median (not a log2 … |
| chain 1 E547L | -0.584 DMS score: mean over two replicates of log2(f_test/f_ref + 0.5)/ln 2, minus the synonymous-codon median (not a log2 … |
| chain 1 P535R | 0.0703 DMS score: mean over two replicates of log2(f_test/f_ref + 0.5)/ln 2, minus the synonymous-codon median (not a log2 … |
| chain 1 I562V | 0.21 DMS score: mean over two replicates of log2(f_test/f_ref + 0.5)/ln 2, minus the synonymous-codon median (not a log2 … |
| chain 1 D568F | -2.94 DMS score: mean over two replicates of log2(f_test/f_ref + 0.5)/ln 2, minus the synonymous-codon median (not a log2 … |
| chain 1 N592D | -0.398 DMS score: mean over two replicates of log2(f_test/f_ref + 0.5)/ln 2, minus the synonymous-codon median (not a log2 … |
| chain 1 D544G | -0.178 DMS score: mean over two replicates of log2(f_test/f_ref + 0.5)/ln 2, minus the synonymous-codon median (not a log2 … |
| chain 1 E547T | -2.64 DMS score: mean over two replicates of log2(f_test/f_ref + 0.5)/ln 2, minus the synonymous-codon median (not a log2 … |
| chain 1 L571D | -0.576 DMS score: mean over two replicates of log2(f_test/f_ref + 0.5)/ln 2, minus the synonymous-codon median (not a log2 … |
| chain 1 I560L | -0.196 DMS score: mean over two replicates of log2(f_test/f_ref + 0.5)/ln 2, minus the synonymous-codon median (not a log2 … |
| chain 1 A545T | -0.0243 DMS score: mean over two replicates of log2(f_test/f_ref + 0.5)/ln 2, minus the synonymous-codon median (not a log2 … |
| chain 1 N556D | 0.175 DMS score: mean over two replicates of log2(f_test/f_ref + 0.5)/ln 2, minus the synonymous-codon median (not a log2 … |
| chain 1 D548F | -0.0924 DMS score: mean over two replicates of log2(f_test/f_ref + 0.5)/ln 2, minus the synonymous-codon median (not a log2 … |
